pKd: −log10 of the molar value.
Columns and labels:
[1] = molecular target: trastuzumab; experiment: cell-based or functional assay
[2] = molecular target: trastuzumab; experiment: method not stated; affinity listed for the purchased ADA
[3] = molecular target: trastuzumab; experiment: ELISA Kit A (anti-idiotype capture) of trastuzumab 50 ug/mL pre-bound with ADA; trastuzumab:ADA 1:1
[4] = molecular target: trastuzumab; experiment: ELISA Kit A (anti-idiotype capture) of trastuzumab 50 ug/mL pre-bound with ADA; trastuzumab:ADA 5:1
[5] = molecular target: trastuzumab; experiment: ELISA Kit A (anti-idiotype capture) of trastuzumab 0.5 ug/mL pre-bound with ADA; trastuzumab:ADA 1:1
[6] = molecular target: trastuzumab; experiment: ELISA Kit A (anti-idiotype capture) of trastuzumab 0.5 ug/mL pre-bound with ADA; trastuzumab:ADA 1:2
[7] = molecular target: trastuzumab; experiment: ELISA Kit A (anti-idiotype capture) of trastuzumab 0.5 ug/mL pre-bound with ADA; trastuzumab:ADA 1:5
[8] = molecular target: trastuzumab; experiment: ELISA Kit A (anti-idiotype capture) of trastuzumab 0.5 ug/mL pre-bound with ADA; trastuzumab:ADA 5:1
[9] = molecular target: trastuzumab; experiment: ELISA Kit A (anti-idiotype capture) of trastuzumab 50 ug/mL pre-bound with ADA; trastuzumab:ADA 10:1
[10] = molecular target: trastuzumab; experiment: ELISA Kit A (anti-idiotype capture) of trastuzumab 0.5 ug/mL pre-bound with ADA; trastuzumab:ADA 10:1
[11] = molecular target: trastuzumab; experiment: ELISA Kit A (anti-idiotype capture) of trastuzumab 0.5 ug/mL pre-bound with ADA; trastuzumab:ADA 1:10
[12] = molecular target: trastuzumab; experiment: ELISA Kit A (anti-idiotype capture) of trastuzumab 0.5 ug/mL pre-bound with ADA; trastuzumab:ADA 1:50
[13] = molecular target: trastuzumab; experiment: ELISA Kit A (anti-idiotype capture) of trastuzumab 50 ug/mL pre-bound with ADA; trastuzumab:ADA 100:1
[14] = molecular target: trastuzumab; experiment: ELISA Kit A (anti-idiotype capture) of trastuzumab 0.5 ug/mL pre-bound with ADA; trastuzumab:ADA 1:100
[15] = molecular target: trastuzumab; experiment: ELISA Kit B (HER2 capture, anti-human IgG Fc detection) of trastuzumab 0.5 ug/mL pre-bound with ADA; trastuzumab:ADA 1:1
[16] = molecular target: trastuzumab; experiment: ELISA Kit B (HER2 capture, anti-human IgG Fc detection) of trastuzumab 0.5 ug/mL pre-bound with ADA; trastuzumab:ADA 10:1
[17] = molecular target: trastuzumab; experiment: ELISA Kit B (HER2 capture, anti-human IgG Fc detection) of trastuzumab 0.5 ug/mL pre-bound with ADA; trastuzumab:ADA 1:10
[18] = molecular target: trastuzumab; experiment: ELISA Kit B (HER2 capture, anti-human IgG Fc detection) of trastuzumab 0.5 ug/mL pre-bound with ADA; trastuzumab:ADA 1:100

Accuracy (%) nSMOL; trastuzumab 0.5 ug/mL; trastuzumab:ADA 1:1 [1] [%] | Accuracy (%) nSMOL; trastuzumab 0.5 ug/mL; trastuzumab:ADA 1:2 [1] [%] | Accuracy (%) nSMOL; trastuzumab 0.5 ug/mL; trastuzumab:ADA 1:5 [1] [%] | Accuracy (%) nSMOL; trastuzumab 0.5 ug/mL; trastuzumab:ADA 1:10 [1] [%] | Accuracy (%) nSMOL; trastuzumab 0.5 ug/mL; trastuzumab:ADA 1:50 [1] [%] | Accuracy (%) nSMOL; trastuzumab 0.5 ug/mL; trastuzumab:ADA 1:100 [1] [%] | Accuracy (%) nSMOL; trastuzumab 0.5 ug/mL; trastuzumab:ADA 5:1 [1] [%] | Accuracy (%) nSMOL; trastuzumab 0.5 ug/mL; trastuzumab:ADA 10:1 [1] [%] | Accuracy (%) nSMOL; trastuzumab 50 ug/mL; trastuzumab:ADA 1:1 [1] [%] | Accuracy (%) nSMOL; trastuzumab 50 ug/mL; trastuzumab:ADA 5:1 [1] [%] | Accuracy (%) nSMOL; trastuzumab 50 ug/mL; trastuzumab:ADA 10:1 [1] [%] | Accuracy (%) nSMOL; trastuzumab 50 ug/mL; trastuzumab:ADA 100:1 [1] [%] | Accuracy (%) nSMOL; trastuzumab first immobilized on Protein A; trastuzumab:ADA 1:1 [1] [%] | Accuracy (%) nSMOL; trastuzumab first immobilized on Protein A; trastuzumab:ADA 5:1 [1] [%] | Accuracy (%) nSMOL; trastuzumab first immobilized on Protein A; trastuzumab:ADA 10:1 [1] [%] | Accuracy (%) nSMOL; trastuzumab first immobilized on Protein A; trastuzumab:ADA 100:1 [1] [%] | pKd [2] | Accuracy (%) ELISA [3] [%] | Accuracy (%) ELISA [4] [%] | Accuracy (%) ELISA [5] [%] | Substance | other results
106 | 102 | 93 | 107 | 86 | 84.8 | 113 | 109 | 92.9 | 92.8 | 102 | 89.5 | 94.5 | 94.3 | 101 | 107 | 10.70 | 81.4 | 66.8 | 84.1 | HCA168 (Fab) | Accuracy (%) ELISA [6]: 82.1%; Accuracy (%) ELISA [7]: 67.7%; Accuracy (%) ELISA [8]: 102%; Accuracy (%) ELISA [9]: 84.4%; Accuracy (%) ELISA [10]: 95.2%; Accuracy (%) ELISA [11]: 62.2%; Accuracy (%) ELISA [12]: 64.5%; Accuracy (%) ELISA [13]: 84.9%; Accuracy (%) ELISA [14]: 72.2%; Accuracy (%) Kit B [15]: 42.4%; Accuracy (%) Kit B [16]: 95.5%; Accuracy (%) Kit B [17]: 6.4%; Accuracy (%) Kit B [18]: 3.32%
99.9 | 93.4 | 101 | 89.1 | 86.6 | 88.7 | 93.3 | 106 | 94.8 | 96.7 | 104 | 94.7 | 102 | 98.3 | 102 | 93.5 | 9.40 | 57.3 | 72.1 | 78.7 | HCA176 (antibody) | Accuracy (%) ELISA [6]: 75.2%; Accuracy (%) ELISA [7]: 75.4%; Accuracy (%) ELISA [8]: 98%; Accuracy (%) ELISA [9]: 69.6%; Accuracy (%) ELISA [10]: 116%; Accuracy (%) ELISA [11]: 76.6%; Accuracy (%) ELISA [12]: 73.1%; Accuracy (%) ELISA [13]: 84.6%; Accuracy (%) ELISA [14]: 82.6%; Accuracy (%) Kit B [15]: 36.1%; Accuracy (%) Kit B [16]: 101%; Accuracy (%) Kit B [17]: 3.93%; Accuracy (%) Kit B [18]: 11.7%

Reference: patent US20200173960A1
